Reference: patent US7572594B2, “Screening assays for agonists or antagonists or receptor activator of NF-κB” (Immunex Corporation, priority 2000, dated 2009)

Key:
mouse TRAP mRNA = assay: Quantitative RT-PCR of TRAP mRNA in RAW 264.7 cells; type: cell-based; conditions: RANKL/LZ 200 ng/ml or TNFα 20 ng/ml, various times
mouse MMP-9 mRNA = assay: Quantitative RT-PCR of MMP-9 mRNA in RAW 264.7 cells; type: cell-based; conditions: RANKL/LZ 200 ng/ml or TNFα 20 ng/ml, various times
From the text: MMP-9 mRNA is elevated greater than 350-fold by RANK-L, but is not increased by TNFα. This specificity is helpful in screening for inhibitors of RANK signal transduction.

[1] = tested on: endogenous c-jun kinase (JNK); assay: JNK immune-complex kinase assay in transfected 3T3 cells; type: cell-based, murine; conditions: 3T3 cells 24 hours after transfection, absence of RANK-L stimulation
Procedure: This example describes evaluating murine 3T3 cells transfected with plasmids containing DNA encoding human FEO RANK (SEQ ID NO:9), and murine 3T3 cells expressing recombinant DNA encoding human wild type RANK (SEQ ID NO:1) for their relative ability to activate endogenous c-jun kinase (JNK) in the absence of RANK-L stimulation. JNK is known to be activated as a consequence of RANK signal transduction.
For JNK assays, whole cell extracts were prepared from 3T3 cells 24 hours after transfection. Cells were lysed in a buffer containing 20 mM HEPES, pH 7.4, 2 mM EGTA, 50 mM β-glycerol phosphate, 1 mM DTT, 1 mM sodium orthovanadate, 1% Triton-X 100, 10% glycerol and the protease inhibitors leupeptin, pepstatin A, and PMSF. Clarified lysates were immunoprecipitated with 1 μg each anti-JNK (FL) and anti-JNK (C17) antibodies (both from Santa Cruz Biotechnology, Inc. Santa Cruz, Calif.). […] JNK activity was determined by an immune-complex assay using 1 μg of a fusion protein of glutathione-S-transferase and amino acids 1-169 of […] (GST-cJun (1-169)) (UBI, Lake Placid, N.Y.) and 5 μCi of [^32P]-ATP as substrate in 40 μl of assay buffer at 30° C. for 20 min. […]

[2] = tested on: MMP-9 promoter (nucleotides 1769-3591 of SEQ ID NO:11); assay: pSIR/MMP-9 hIL-2 αR reporter in RAW264.7 cells, flow cytometry; type: cell-based, murine; conditions: RAW264.7 cells stably expressing pSIR/MMP-9
From the text: The location of the RANK-responsive portion of MMP-9 promoter was more narrowly identified by testing further truncations of the promoter. A PVUII/BGL2 restriction fragment including the 5′-proximal 1822 bp of the MMP-9 promoter was fused with a BLGII/EcoRI restriction fragment encoding the human IL-2 receptor a in the multicloning site of the pSIR retroviral vector (Clontech). The resulting plasmid, which was named pSIR/MMP-9, is responsive to RANK and is useful in assays to identify RANK antagonists. The region of the MMP-9 promoter present in pSIR/MMP-9 corresponds to nucleotides 1769-3591 of SEQ ID NO:11.
pSIR/MMP-9 was introduced into RANK responsive cells as follows. Retroviral particles were prepared after transfection of 293/E packaging cells with pSIR/MMP-9. RAW264.7 cells were infected with these particles and neomycin resistant colonies stably expressing the reporter were isolated. Treatment of these cells with RANKL led to an increase in the cell surface expression of the hIL-2 αR, as detected by flow cytometry using the mouse mAb (clone 2A3) anti-human IL-2 αR as a reagent for detecting the IL-2R. […]
Surface expression of human IL-2α receptor is detected by flow cytometry in the following manner. […] After washing the cells, the fluorescence intensity is measured using a flow cytometer, such as a FACS scan (Becton Dickinson).

RANK = assay: radioimmune assay of reporter surface expression in 293/EBNA cells; type: cell-based; conditions: 48 hours after transfection
Procedure: Additionally, surface expression of human IL-2α receptor can be analyzed using a radioactive antibody against IL-2α receptor. For the mIL-4R-specific radioimmune assay, mouse anti-human IL-2α monoclonal antibody reactive with mIL-4R was labeled with ^125I via a Chloramine T conjugation method; the resulting specific activity is typically […]. After 48 hours, cells transfected with pGL2-MMP-9/human IL-2 receptor were washed once with media (DMEM, 12 5% FBS). Non-specific binding sites were blocked by the addition of pre-warmed binding media containing 5% non-fat dry milk and incubation at 37° C./5% CO2 in a tissue culture incubator for one hour. The blocking media was decanted and binding buffer containing ^125I anti-mIL-4R (clone M1; rat IgG1) was added to the cells and incubated with rocking at room temperature for 1 hour. After incubation of the cells with the radio-labeled antibody, cells were washed extensively with binding buffer (2 X) and twice with phosphate-buffered saline (PBS). Cells were lysed in 1 ml of 0.5M NaOH, and total radioactivity measured with a gamma counter.

TNFα [reference compound]
TRAP mRNA elevation (mouse TRAP mRNA): about 2.3 fold | MMP-9 mRNA elevation (mouse MMP-9 mRNA): not increased

B1: FEO RANK: mutated form of RANK isolated from patients with familial expansile osteolysis (SEQ ID NOS:9 and 10), expressed from transfected DNA (protein, listed as Homo sapiens)
chain: MAPRARRRRPLFALLLLCALLLLCALLARLQVALQIAPPCTSEKHYEHLGRCCNKCEPGKYMSSKCTTTSDSVCLPCGPDEYLDSWNEEDKCLLHKVCDTGKALVAVVAGNSTTPRRCACTAGYHWSQDCECCRRNTECAPGLGAQHPLQLNKDTVCKPCLAGYFSDAFSSTDKCRPWTNCTFLGKRVEHHGTEKSDAVCSSSLPARKPPNEPHVYLPGLIILLLFASVALVAAIIFGVCYRKKGKALTANLWHWINEACGRLSGDKESSGDSCVSTHTANFGQQGACEGVLLLTLEEKTFPEDMCYPDQGGVCQGTCVGGGPYAQGEDARMLSLVSKTEIEEDSFRQMPTEDEYMDRPSQPTDQLLFLTEPGSKSTPPFSEPLEVGENDSLSQCFTGTQSTVGSESCNCTEPLCRTDWTPMSSENYLQKEVDSGHCPHWAASPSPNWADVCTGCRNPPGEDCEPLVGSPKRGPLPQCAYGMGLPPEEEASRTEARDQPEDGADGRLPSSARAGAGSGSSPGGQSPASGNVTGNSNSTFISSGQVMNFKGDIIVVYVSQTSQEGAAAAAEPMGRPVQEETLARRDSFAGNGPRFPDPCGGPEGLREPEKASRPVQEQGGAKA
activation of JNK [1]: activated

B2: RANKL: RANK ligand used to treat RAW264.7 reporter cells; form not specified (protein)
chain: MRRASRDYTKYLRGSEEMGGGPGAPHEGPLHAPPPPAPHQPPAASRSMFVALLGLGLGQVVCSVALFFYFRAQMDPNRISEDGTHCIYRILRLHENADFQDTTLESQDTKLIPDSCRRIKQAFQGAVQKELQHIVGSQHIRAEKAMVDGSWLDLAKRSKLEAQPFAHLTINATDIPSGSHKVSLSSWYHDRGWAKISNMTFSNGKLIVNQDGFYYLYANICFRHHETSGDLATEYLQLMVYVTKTSIKIPSSHTLMKGGSTKYWSGNSEFHFYSINVGGFFKLRSGEEISIEVSNPSLLDPDQDATYFGAFKVRDID
cell surface expression of the hIL-2 αR [2]: increase | time to maximal level of hIL-2 α receptor expression [2]: ≤ 48 h

B3: RANK-L: RANK ligand, Type 2 transmembrane protein that binds to and activates RANK; human full-length SEQ ID NO:6 (protein, listed as Homo sapiens)
chain: B2 chain
transcriptional activation, reporter detected on the cell surface (RANK): resulted in transcription of muIL-4R
